First the molecules themselves.
T1: full-length recombinant 3D7 MSP2 (Plasmodium falciparum, UniProt P50498 21-246)
T1 chain: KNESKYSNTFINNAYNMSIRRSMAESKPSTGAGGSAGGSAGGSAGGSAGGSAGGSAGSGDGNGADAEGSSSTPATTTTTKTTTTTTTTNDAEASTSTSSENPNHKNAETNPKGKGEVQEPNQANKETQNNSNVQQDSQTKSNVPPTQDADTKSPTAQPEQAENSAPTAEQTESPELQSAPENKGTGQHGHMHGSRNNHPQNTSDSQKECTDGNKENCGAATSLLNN

T2: full-length recombinant FC27 MSP2 (Plasmodium falciparum, UniProt P19260 21-261)
T2 chain: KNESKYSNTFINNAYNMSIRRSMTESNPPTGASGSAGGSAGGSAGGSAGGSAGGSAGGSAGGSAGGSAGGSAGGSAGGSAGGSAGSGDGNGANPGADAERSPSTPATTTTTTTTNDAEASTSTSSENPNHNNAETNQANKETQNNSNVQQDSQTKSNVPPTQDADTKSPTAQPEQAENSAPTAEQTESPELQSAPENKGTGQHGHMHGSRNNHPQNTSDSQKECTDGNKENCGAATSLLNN

B1: mouse monoclonal antibody 6D8 (antibody, V domains shown)
VH: QVQLQQSGDELVKPGASVKLSCTVSGFNIKDDFIHWMKQRPEQGLEWIGRIDPANGYTKYAPKFQDKATMTADTSSNTAYLQLSSLASEDAAVYYCATYGVAYWGQGTLVTVSA
VL: DIVLTQSPASLAVSLGQRATISCKASQSVDHDGDSYMNWFQQKPGQSPKLLIYAASNLESGIPARFSGSGSGTDFTLNIHPVEEEDAATYYCQQTNEDPYTFGGGTKLEIK
B2: 6D8 scFv (scFv, V domains shown)
VH: B1 VH
VL: B1 VL

Common to all, as to test: ITC
A general note: Isothermal titration calorimetry measures the heat released or taken up as one component is titrated into another.

The target of the assay “6D8 scFv” is B2.
The target of assay [1] is T1, full-length recombinant 3D7 MSP2.
The target of assay [2] is T2, full-length recombinant FC27 MSP2.
Assay [3] concerns the target T1, full-length recombinant 3D7 MSP2.
The target in assay [4] is T2, full-length recombinant FC27 MSP2.

Like-named read-outs stand apart in the source and are kept apart here.

One may read the Kd as the free concentration of one partner at which half of the binding sites on the other are occupied at equilibrium, for simple one-to-one binding. The molecule NAYNMSIRRSMAESKPS [3D7-MSP2_(14-30)] came in with a Kd with 6D8 scFv of 64 nM.
For B1, the Kd in assay [1] turned out to be 64 nM; in assay [2], 16 nM.
Regarding B2, the Kd in assay [3] was found to be 61 nM; in assay [4] it was 13 nM; in assay [1] it was 61 nM; in assay [2], 13 nM.
In turn, NAYNMSIRRSMANEGSN [FC27-MSP2_(14-30)] displayed a Kd with 6D8 scFv of 16 nM.

Source of the values: PMC4428071 (2015).
